Test results from patent US20120100139A1 (APTEVO RESEARCH AND DEVELOPMENT, published 2012).

T1: CD86-mIgG (Ancell, Inc) (UniProt P42081 24-247, limits assumed)
T1 construct: Bought reagent
T1 sequence (looked up): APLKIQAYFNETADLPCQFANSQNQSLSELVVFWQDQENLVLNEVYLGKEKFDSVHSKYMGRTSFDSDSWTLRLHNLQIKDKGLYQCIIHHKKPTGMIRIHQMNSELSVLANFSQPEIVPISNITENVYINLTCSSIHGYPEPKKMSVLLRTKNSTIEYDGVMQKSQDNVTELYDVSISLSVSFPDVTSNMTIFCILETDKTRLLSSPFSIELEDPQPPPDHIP


Assays:
CD86-mIgG (Ancell, Inc) [1] = target: T1, CD86-mIgG (Ancell, Inc); assay: SPR (BIAcore T100), CD86-mIgG immobilized on CM5; second site
Procedure: (§1) SPR measurements were performed on a BIAcore™ T100 SPR (Pharmacia Biotech AB, Uppsala) using HBS-EP+ (GE Healthcare) as a running buffer. […] CTLA4-containing constructs were injected for 150 seconds, at a flow rate of 10 μl/min, in a series of concentrations from 4 nM to 10 μM. Dissociation was monitored for 600 seconds, and the surface was either regenerated by injecting 50 mM sodium citrate, 500 mM sodium chloride, pH 5.0, for 60 seconds (wild type CTLA4) or 10 mM glycine, pH 1.7 (L104E A29Y CTLA4). […] Data were analyzed using BiaEvaluation for the T100 software (version 2.0.1, GE Healthcare).
(§2) SPR measurements were performed as listed above, with the following exceptions: HBS-P+ (GE Healthcare) was used as a running buffer; dissociation was monitored for 1200 seconds; and the surface was regenerated by injecting 10 mM glycine, pH 1.7, for 60 seconds.

CD86-mIgG (Ancell, Inc) [2] = target: T1, CD86-mIgG (Ancell, Inc); assay: SPR (BIAcore T100), CD86-mIgG immobilized on CM5; steady-state equilibrium fit
Procedure: as §1, §2

CD86-mIgG (Ancell, Inc) [3] = target: T1, CD86-mIgG (Ancell, Inc); assay: SPR (BIAcore T100), CD86-mIgG immobilized on CM5; first site
Procedure: as §1, §2

| Binder | Second Site ka (CD86-mIgG (Ancell, Inc) [1]) | Second Site kd (CD86-mIgG (Ancell, Inc) [1]) | Kd (CD86-mIgG (Ancell, Inc) [2]) | koff (CD86-mIgG (Ancell, Inc) [3]) | kon (CD86-mIgG (Ancell, Inc) [3]) |
| --- | --- | --- | --- | --- | --- |
| 3D1 SMIP (Fc fusion, SMIP: murine 3D1 scFv at the N-terminus of a hinge-Fc single chain) QVQLQQSGPELVRPGESVKISCKGSGYTFTDYAIQWVKQSHAKSLEWIGVINIYYDNTNYNQKFKGKATMTVDKSSSTAYMELARLTSEDSAIYYCARAAWYMDYWGQGTSVTVSSGGGGSGGGGSGGGGSGGGGSDIVLSQSPSSLAVSAGEKVTMSCKSSQSLLNSRTRENYLAWYQQKPGQSPKLLIYWASTRESGVPDRFTGSGSGTDFTLTISSVQAEDLAVYYCTQSYNLYTFGGGTKLEIKLEPKSSDKTHTCPPCPAPEAAGAPSVFLFPPKPKDTLMISRTPEVTCVVVDVSHEDPEVKFNWYVDGVEVHNAKTKPREEQYNSTYRVVSVLTVLHQDWLNGKAYACAVSNKALPAPIEKTISKAKGQPREPQVYTLPPSRDELTKNQVSLTCLVKGFYPSDIAVEWESNGQPENNYKTTPPVLDSDGSFFLYSKLTVDKSRWQQGNVFSCSVMHEALHNHYTQKSLSLSPG | 0.0055 s⁻¹ | 0.0276 s⁻¹ | 11.7 nM | 4.4e-05 s⁻¹ | 323000 M⁻¹ s⁻¹ |
| FUN1 mAb (parent murine anti-CD86 monoclonal antibody) (antibody, V domains shown, Murine monoclonal antibody; also called FUN1 antibody) VH: EVQLQQSGPELEKPGASVKISCKASGYSFTDYNMNWVKQSNGKSLEWIGNIDPYYGGTSYNQKFKGKATLTVDKSSSTAYMQLNSLTSEDSAVYFCARWDYRYDDGRAYYVMDFWGQGTSVTVSS VL: ELQMTQSPSSLAASAGEKVTMSCKSSQSVLYSSNQKNYLAWYQQKPGQSPKLLIYWASTRESGVPDRFTGSGSGTHFTLTVSSVQAEDLAVYYCHQYLYSWTFGGGTNLEIKR | 0.00278 s⁻¹ | 0.0154 s⁻¹ | 36 nM | 2.28e-05 s⁻¹ | 129000 M⁻¹ s⁻¹ |
| IL10::3D1 xceptor (Fc fusion) SPGQGTQSENSCTHFPGNLPNMLRDLRDAFSRVKTFFQMKDQLDNLLLKESLLEDFKGYLGCQALSEMIQFYLEEVMPQAENQDPDIKAHVNSLGENLKTLRLRLRRCHRFLPCENKSKAVEQVKNAFNKLQEKGIYKAMSEFDIFINYIEAYITMKIRNLEPKSSDKTHTCPPCPAPEAAGAPSVFLFPPKPKDTLMISRTPEVTCVVVDVSHEDPEVKFNWYVDGVEVHNAKTKPREEQYNSTYRVVSVLTVLHQDWLNGKAYACAVSNKALPAPIEKTISKAKGQPREPQVYTLPPSRDELTKNQVSLTCLVKGFYPSDIAVEWESNGQPENNYKTTPPVLDSDGSFFLYSKLTVDKSRWQQGNVFSCSVMHEALHNHYTQKSLSLSPGNSLFNQEVQIPLTESYSPNSQVQLQQSGPELVRPGESVKISCKGSGYTFTDYAIQWVKQSHAKSLEWIGVINIYYDNTNYNQKFKGKATMTVDKSSSTAYMELARLTSEDSAIYYCARAAWYMDYWGQGTSVTVSSGGGGSGGGGSGGGGSGGGGSDIVLSQSPSSLAVSAGEKVTMSCKSSQSLLNSRTRENYLAWYQQKPGQSPKLLIYWASTRESGVPDRFTGSGSGTDFTLTISSVQAEDLAVYYCTQSYNLYTFGGGTKLEIK | 0.0124 s⁻¹ | 0.102 s⁻¹ | 35.7 nM | 8.3e-05 s⁻¹ | 617000 M⁻¹ s⁻¹ |
| FUN1-21 PIMS (Fc fusion, PIMS: humanized FUN1-21 scFv at the carboxy-terminus) EPKSSDKTHTCPPCPAPEAAGAPSVFLFPPKPKDTLMISRTPEVTCVVVDVSHEDPEVKFNWYVDGVEVHNAKTKPREEQYNSTYRVVSVLTVLHQDWLNGKAYACAVSNKALPAPIEKTISKAKGQPREPQVYTLPPSRDELTKNQVSLTCLVKGFYPSDIAVEWESNGQPENNYKTTPPVLDSDGSFFLYSKLTVDKSRWQQGNVFSCSVMHEALHNHYTQKSLSLSPGNSLFNQEVQIPLTESYSPNSQVQLVQSGAEVKKPGASVKVSCKASGYTFTDYNMNWVRQAPGQGLEWMGNIDPYYGGTSYNQKFKGRVTMTRDTSISTAYMELSRLRSDDTAVYYCARWDYRYDDGRAYYVMDFWGQGTTVTVSSGGGGSGGGGSGGGGSGGGGSDIVMTQSPDSLAVSLGERATINCKSSQSVLYSSNQKNYLAWYQQKPGQPPKLLIYWASTRESGVPDRFSGSGSGTDFTLTISSLQAEDVAVYYCHQYLYSWTFGQGTKLEIKR | 0.00113 s⁻¹ | 0.00837 s⁻¹ | 70.9 nM | 9.1e-05 s⁻¹ | 50000 M⁻¹ s⁻¹ |
| FUN1-21 humanized FUN1 SMIP (Fc fusion, SMIP: scFv-hinge-Fc single chain) QVQLVQSGAEVKKPGASVKVSCKASGYTFTDYNMNWVRQAPGQGLEWMGNIDPYYGGTSYNQKFKGRVTMTRDTSISTAYMELSRLRSDDTAVYYCARWDYRYDDGRAYYVMDFWGQGTTVTVSSGGGGSGGGGSGGGGSGGGGSDIVMTQSPDSLAVSLGERATINCKSSQSVLYSSNQKNYLAWYQQKPGQPPKLLIYWASTRESGVPDRFSGSGSGTDFTLTISSLQAEDVAVYYCHQYLYSWTFGQGTKLEIKRLEPKSSDKTHTCPPCPAPEAAGAPSVFLFPPKPKDTLMISRTPEVTCVVVDVSHEDPEVKFNWYVDGVEVHNAKTKPREEQYNSTYRVVSVLTVLHQDWLNGKAYACAVSNKALPAPIEKTISKAKGQPREPQVYTLPPSRDELTKNQVSLTCLVKGFYPSDIAVEWESNGQPENNYKTTPPVLDSDGSFFLYSKLTVDKSRWQQGNVFSCSVMHEALHNHYTQKSLSLSPG | 0.00578 s⁻¹ | 0.0127 s⁻¹ | 26.9 nM | 0.000139 s⁻¹ | 186000 M⁻¹ s⁻¹ |
| 3D1::IL10 xceptor (Fc fusion, anti-CD86 3D1 scFv - Fc - IL10) QVQLQQSGPELVRPGESVKISCKGSGYTFTDYAIQWVKQSHAKSLEWIGVINIYYDNTNYNQKFKGKATMTVDKSSSTAYMELARLTSEDSAIYYCARAAWYMDYWGQGTSVTVSSGGGGSGGGGSGGGGSGGGGSDIVLSQSPSSLAVSAGEKVTMSCKSSQSLLNSRTRENYLAWYQQKPGQSPKLLIYWASTRESGVPDRFTGSGSGTDFTLTISSVQAEDLAVYYCTQSYNLYTFGGGTKLEIKLEPKSSDKTHTCPPCPAPEAAGAPSVFLFPPKPKDTLMISRTPEVTCVVVDVSHEDPEVKFNWYVDGVEVHNAKTKPREEQYNSTYRVVSVLTVLHQDWLNGKAYACAVSNKALPAPIEKTISKAKGQPREPQVYTLPPSRDELTKNQVSLTCLVKGFYPSDIAVEWESNGQPENNYKTTPPVLDSDGSFFLYSKLTVDKSRWQQGNVFSCSVMHEALHNHYTQKSLSLSPGNSLFNQEVQIPLTESYSPNSSPGQGTQSENSCTHFPGNLPNMLRDLRDAFSRVKTFFQMKDQLDNLLLKESLLEDFKGYLGCQALSEMIQFYLEEVMPQAENQDPDIKAHVNSLGENLKTLRLRLRRCHRFLPCENKSKAVEQVKNAFNKLQEKGIYKAMSEFDIFINYIEAYMTMKIRN | 0.0094 s⁻¹ | 0.0462 s⁻¹ | 26.5 nM | 7.06e-05 s⁻¹ | 974000 M⁻¹ s⁻¹ |
| FUN1-11 humanized FUN1 SMIP (Fc fusion, SMIP: scFv-hinge-Fc single chain) EVQLVQSGAEVKKPGATVKISCKVSGYTFTDYNMNWVQQAPGKGLEWMGNIDPYYGGTSYNQKFKGRVTITADTSTDTAYMELSSLRSEDTAVYYCATWDYRYDDGRAYYVMDFWGQGTTVTVSSGGGGSGGGGSGGGGSGGGGSDIVMTQSPDSLAVSLGERATINCKSSQSVLYSSNQKNYLAWYQQKPGQPPKLLIYWASTRESGVPDRFSGSGSGTDFTLTISSLQAEDVAVYYCHQYLYSWTFGQGTKLEIKRLEPKSSDKTHTCPPCPAPEAAGAPSVFLFPPKPKDTLMISRTPEVTCVVVDVSHEDPEVKFNWYVDGVEVHNAKTKPREEQYNSTYRVVSVLTVLHQDWLNGKAYACAVSNKALPAPIEKTISKAKGQPREPQVYTLPPSRDELTKNQVSLTCLVKGFYPSDIAVEWESNGQPENNYKTTPPVLDSDGSFFLYSKLTVDKSRWQQGNVFSCSVMHEALHNHYTQKSLSLSPG | 7.5e-05 s⁻¹ | 1.25e-06 s⁻¹ | 119 nM | 0.00035 s⁻¹ | 13900 M⁻¹ s⁻¹ |
| SEQ ID NO: 328 (Fc fusion, also called 3D1 PIMS (probably)) EPKSSDKTHTCPPCPAPEAAGAPSVFLFPPKPKDTLMISRTPEVTCVVVDVSHEDPEVKFNWYVDGVEVHNAKTKPREEQYNSTYRVVSVLTVLHQDWLNGKAYACAVSNKALPAPIEKTISKAKGQPREPQVYTLPPSRDELTKNQVSLTCLVKGFYPSDIAVEWESNGQPENNYKTTPPVLDSDGSFFLYSKLTVDKSRWQQGNVFSCSVMHEALHNHYTQKSLSLSPGNSLFNQEVQIPLTESYSPNSQVQLQQSGPELVRPGESVKISCKGSGYTFTDYAIQWVKQSHAKSLEWIGVINIYYDNTNYNQKFKGKATMTVDKSSSTAYMELARLTSEDSAIYYCARAAWYMDYWGQGTSVTVSSGGGGSGGGGSGGGGSGGGGSDIVLSQSPSSLAVSAGEKVTMSCKSSQSLLNSRTRENYLAWYQQKPGQSPKLLIYWASTRESGVPDRFTGSGSGTDFTLTISSVQAEDLAVYYCTQSYNLYTFGGGTKLEIK | 0.00077 s⁻¹ | 0.00377 s⁻¹ | 28 nM | 2.37e-05 s⁻¹ | 112000 M⁻¹ s⁻¹ |
